Data on 1 molecule can be found in PMC8187598.

Assay [1] concerns the target His-tagged α subunit of acetyl-CoA carboxylase (AccA), biotinylated (Streptomyces hygroscopicus var. ascomyceticus FS35).
The target is the same in assay [2]. This is another data set of the same source.

B1: GlnB protein (PII signal transduction protein encoded by gene 1_2537), native (untagged) (natural protein)
chain: MSIKAEYIWIDGTQPTAKLRSKTKILSDGSRLPRWGFDGSSTNQAEGHASDLVLEPVFSCPDPIRGGDHLLVLCEVLHTDLTPHPSNTRALLRPVAERFAGQEPIFGIEQEYTFLKGDRPLGFPEGGGYPAPQADYYCGVGADAIFGREIVEKHLDLCLAAGLGLSGINAEVMPGQWEFQVGALPPLEVSDHMWVARWLLHRVAEEFGVTASLDAKPAKGDWNGAGAHTNFSTRAMREGYDPIITACEALGQDDKPLEHVRQYGTGIEDRLTGAHETAPWDAYSYGASDRGASVRIPWQVEVEKKGYIEDRRPNANVDPYVVTRLMVDTCCTELARREQI
In the case of B1, in assay [1], the maximal calculated inhibition of ACC by GlnB at rising concentrations (from 0 μM, stable above 1.5 μM), without 2-OG is 50% and the maximal calculated inhibition of PCC by GlnB at rising concentrations (from 0 μM, stable above 1.5 μM), without 2-OG is 24.7%. Besides, in assay [2], the in vitro activity of ACC in the coupled enzyme assay with 5 μM GlnB, against 100% without GlnB was 54.2% and the in vitro activity of PCC in the coupled enzyme assay with 5 μM GlnB, against 100% without GlnB was determined as 76.5%.
